Test results taken from PMC12480911, “Visualization of liquid-liquid phase transitions using a tiny G-quadruplex binding protein”.
Residue numbers refer to the chain shown, from its start.

Key:
SERF2 [1] = target: T1, SERF2 (human, UniProt P84101 1-59); assay: fluorescence polarization; conditions: stated as sub-micromolar, FP/anisotropy: 20 mM NaPi pH 7.4, 100 mM KCl, 25 C (20-200 nM probe), NMR: same buffer, 4 C
T1 sequence: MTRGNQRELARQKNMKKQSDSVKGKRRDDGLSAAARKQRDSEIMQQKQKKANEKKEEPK

SERF2 [2] = target: T1, SERF2; assay: EMSA; 10 uM RNA, 5-40 uM SERF2; FP/anisotropy: 20 mM NaPi pH 7.4, 100 mM KCl, 25 C (20-200 nM probe); NMR: same buffer, 4 C; conditions: protein: recombinant; tags: His-SUMO removed; AF488-labeled in some assays; G4
SERF2 K25A = target: T2, SERF2 K25A (human, UniProt P84101 1-59, K25A); assay: EMSA; 5 uM each; minimally affected; FP/anisotropy: 20 mM NaPi pH 7.4, 100 mM KCl, 25 C (20-200 nM probe); NMR: same buffer, 4 C; conditions: protein: recombinant; tags: His-SUMO removed; label: 6-FAM (FP); unlabeled (NMR, EMSA); intramolecular G4
T2 sequence: T1 sequence with K25A

SERF2 K23A = target: T3, SERF2 K23A (human, UniProt P84101 1-59, K23A); assay: as above; conditions: protein: recombinant; tags: His-SUMO removed; label: 6-FAM (FP); unlabeled (NMR, EMSA); intramolecular G4
T3 sequence: T1 sequence with K23A

SERF2 [3] = target: T1, SERF2; assay: fluorescence polarization; 100 mM KCl; FP/anisotropy: 20 mM NaPi pH 7.4, 100 mM KCl, 25 C (20-200 nM probe); NMR: same buffer, 4 C; conditions: protein: recombinant, tags: His-SUMO removed, AF488-labeled in some assays
SERF2 N-terminal domain = target: T4, SERF2 N-terminal domain (human, UniProt P84101 1-32); assay: as above; conditions: protein: recombinant; label: 6-FAM (FP); unlabeled (NMR, EMSA); intramolecular G4
T4 chain: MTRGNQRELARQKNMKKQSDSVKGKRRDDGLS

SERF2 [4] = target: T1, SERF2; assay: fluorescence polarization; stated as sub-micromolar; FP/anisotropy: 20 mM NaPi pH 7.4, 100 mM KCl, 25 C (20-200 nM probe); NMR: same buffer, 4 C; conditions: protein: recombinant; tags: His-SUMO removed; AF488-labeled in some assays; label: 6-FAM; G4
SERF2 [5] = target: T1, SERF2; assay: NMR (HSQC, imino 1H, STD); FP/anisotropy: 20 mM NaPi pH 7.4, 100 mM KCl, 25 C (20-200 nM probe); NMR: same buffer, 4 C; conditions: protein: recombinant; tags: His-SUMO removed; AF488-labeled in some assays; dimeric G4 (2 strands)
SERF2 [6] = target: T1, SERF2; assay: fluorescence polarization/anisotropy; stated as sub-micromolar; FP/anisotropy: 20 mM NaPi pH 7.4, 100 mM KCl, 25 C (20-200 nM probe); NMR: same buffer, 4 C; conditions: protein: recombinant; tags: His-SUMO removed; AF488-labeled in some assays; label: Cy3; G4

TERRA60
Kd (SERF2 [1]; AF488-SERF2, similar to TERRA23): < 1000 nM

polyG
Kd (SERF2 [1]): < 1000 nM

B1: Stxbp5 rG4 (structured_RNA)
RNA: GGGAAGGGAAGGGGAGUGGG
binding result (SERF2 [2]): binds

B2: TERRA23 (structured_RNA)
RNA: UAGGGUUAGGGUUAGGGUUAGGG
binding result (SERF2 K25A): binds
binding result (SERF2 K23A): binds
Kd (SERF2 [3]; label: 6-FAM (FP), unlabeled (NMR, EMSA), intramolecular G4): 300 ± 20 nM
binding signal (SERF2 N-terminal domain): ~10 fold weaker than full length

B3: (UG4U)6 (structured_RNA)
RNA: UGGGGUUGGGGUUGGGGUUGGGGUUGGGGUUGGGGU
Kd (SERF2 [3]; label: 6-FAM, G4): 730 ± 250 nM

B4: (GGGA)4 (structured_RNA)
RNA: GGGAGGGAGGGAGGGA
Kd (SERF2 [4]): < 1000 nM

B5: TERRA12 (structured_RNA)
RNA: UUAGGGUUAGGG
binding result (SERF2 [5]): binds

B6: (GGA)7 (structured_RNA)
RNA: GGAGGAGGAGGAGGAGGAGGA
Kd (SERF2 [4]): < 1000 nM

B7: Mark2 rG4 (structured_RNA)
RNA: GAAGGGGAGGGGGCUGGGGGGGGGCAGGG
Kd (SERF2 [3]; label: 6-FAM (FP), G4): 4500 ± 500 nM

B8: (G4C2)4 RNA (structured_RNA)
RNA: GGGGCCGGGGCCGGGGCCGGGGCC
Kd (SERF2 [3]; label: 6-FAM, G4): 880 ± 100 nM

B9: (AGG)5 (structured_RNA)
RNA: AGGAGGAGGAGGAGG
Kd (SERF2 [6]): < 1000 nM
